Experimental data from patent US20240270846A1 (published 2024).

B1: CE115HA000/GLS3000 N53R one-arm antibody (antibody, human IgG1, kappa, L234A L235A, N297A, name in Kabat numbering)
heavy: QVQLVESGGGVVQPGRSLRLSCAASGFTFSNAWMHWVRQAPGKGLEWVAQIKAKSNNYATYYAESVKGRFTISRDDSKNSLYLQMNSLKTEDTAVYYCRYVHYGAYYGVDAWGQGTTVTVSSASTKGPSVFPLAPSSKSTSGGTAALGCLVKDYFPEPVTVSWNSGALTSGVHTFPAVLQSSGLYSLSSVVTVPSSSLGTQTYICNVNHKPSNTKVDKKVEPKSCDKTHTCPPCPAPEAAGGPSVFLFPPKPKDTLMISRTPEVTCVVVDVSHEDPEVKFNWYVDGVEVHNAKTKPREEQYASTYRVVSVLTVLHQDWLNGKEYKCKVSNKALPAPIEKTISKAKGQPREPQVYTLPPSRCELTKNQVSLSCAVKGFYPSDIAVEWESNGQPENNYKTTPPVLDSDGSFFLVSKLTVDKSRWQQGNVFSCSVMHEALHNHYTQKSLSLSPDYKDDDDK
chain: EPKSSDKTHTCPPCPAPELLGGPSVFLFPPKPKDTLMISRTPEVTCVVVDVSHEDPEVKFNWYVDGVEVHNAKTKPREEQYNSTYRVVSVLTVLHQDWLNGKEYKCKVSNKALPAPIEKTISKAKGQPREPQVCTLPPSRDELTKNQVSLWCLVKGFYPSDIAVEWESNGQPENNYKTTPPVLDSDGSFFLYSKLTVDKSRWQQGNVFSCSVMHEALHNRYTQKSLSLSP
light: DIVMTQSPLSLPVTPGEPASISCRSSQSLVHSNRNTYLHWYQQKPGQAPRLLIYKVSRRFSGVPDRFSGSGSGTDFTLKISRVEAEDVGVYYCGQGTQVPYTFGQGTKLEIKRTVAAPSVFIFPPSDEQLKSGTASVVCLLNNFYPREAKVQWKVDNALQSGNSQESVTEQDSKDSTYSLSSTLTLSKADYEKHKVYACEVTHQGLSSPVTKSFNRGEC
notes: one-arm IgG1
B2: CE115HA000/GLS3000 N53S one-arm antibody (antibody, human IgG1, kappa, L234A L235A, N297A, name in Kabat numbering)
heavy: QVQLVESGGGVVQPGRSLRLSCAASGFTFSNAWMHWVRQAPGKGLEWVAQIKAKSNNYATYYAESVKGRFTISRDDSKNSLYLQMNSLKTEDTAVYYCRYVHYGAYYGVDAWGQGTTVTVSSASTKGPSVFPLAPSSKSTSGGTAALGCLVKDYFPEPVTVSWNSGALTSGVHTFPAVLQSSGLYSLSSVVTVPSSSLGTQTYICNVNHKPSNTKVDKKVEPKSCDKTHTCPPCPAPEAAGGPSVFLFPPKPKDTLMISRTPEVTCVVVDVSHEDPEVKFNWYVDGVEVHNAKTKPREEQYASTYRVVSVLTVLHQDWLNGKEYKCKVSNKALPAPIEKTISKAKGQPREPQVYTLPPSRCELTKNQVSLSCAVKGFYPSDIAVEWESNGQPENNYKTTPPVLDSDGSFFLVSKLTVDKSRWQQGNVFSCSVMHEALHNHYTQKSLSLSPDYKDDDDK
chain: EPKSSDKTHTCPPCPAPELLGGPSVFLFPPKPKDTLMISRTPEVTCVVVDVSHEDPEVKFNWYVDGVEVHNAKTKPREEQYNSTYRVVSVLTVLHQDWLNGKEYKCKVSNKALPAPIEKTISKAKGQPREPQVCTLPPSRDELTKNQVSLWCLVKGFYPSDIAVEWESNGQPENNYKTTPPVLDSDGSFFLYSKLTVDKSRWQQGNVFSCSVMHEALHNRYTQKSLSLSP
light: DIVMTQSPLSLPVTPGEPASISCRSSQSLVHSNRNTYLHWYQQKPGQAPRLLIYKVSSRFSGVPDRFSGSGSGTDFTLKISRVEAEDVGVYYCGQGTQVPYTFGQGTKLEIKRTVAAPSVFIFPPSDEQLKSGTASVVCLLNNFYPREAKVQWKVDNALQSGNSQESVTEQDSKDSTYSLSSTLTLSKADYEKHKVYACEVTHQGLSSPVTKSFNRGEC
notes: one-arm IgG1
B3: CE115HA000/GLS3000 N53Y one-arm antibody (antibody, human IgG1, kappa, L234A L235A, N297A, name in Kabat numbering)
heavy: QVQLVESGGGVVQPGRSLRLSCAASGFTFSNAWMHWVRQAPGKGLEWVAQIKAKSNNYATYYAESVKGRFTISRDDSKNSLYLQMNSLKTEDTAVYYCRYVHYGAYYGVDAWGQGTTVTVSSASTKGPSVFPLAPSSKSTSGGTAALGCLVKDYFPEPVTVSWNSGALTSGVHTFPAVLQSSGLYSLSSVVTVPSSSLGTQTYICNVNHKPSNTKVDKKVEPKSCDKTHTCPPCPAPEAAGGPSVFLFPPKPKDTLMISRTPEVTCVVVDVSHEDPEVKFNWYVDGVEVHNAKTKPREEQYASTYRVVSVLTVLHQDWLNGKEYKCKVSNKALPAPIEKTISKAKGQPREPQVYTLPPSRCELTKNQVSLSCAVKGFYPSDIAVEWESNGQPENNYKTTPPVLDSDGSFFLVSKLTVDKSRWQQGNVFSCSVMHEALHNHYTQKSLSLSPDYKDDDDK
chain: EPKSSDKTHTCPPCPAPELLGGPSVFLFPPKPKDTLMISRTPEVTCVVVDVSHEDPEVKFNWYVDGVEVHNAKTKPREEQYNSTYRVVSVLTVLHQDWLNGKEYKCKVSNKALPAPIEKTISKAKGQPREPQVCTLPPSRDELTKNQVSLWCLVKGFYPSDIAVEWESNGQPENNYKTTPPVLDSDGSFFLYSKLTVDKSRWQQGNVFSCSVMHEALHNRYTQKSLSLSP
light: DIVMTQSPLSLPVTPGEPASISCRSSQSLVHSNRNTYLHWYQQKPGQAPRLLIYKVSYRFSGVPDRFSGSGSGTDFTLKISRVEAEDVGVYYCGQGTQVPYTFGQGTKLEIKRTVAAPSVFIFPPSDEQLKSGTASVVCLLNNFYPREAKVQWKVDNALQSGNSQESVTEQDSKDSTYSLSSTLTLSKADYEKHKVYACEVTHQGLSSPVTKSFNRGEC
notes: one-arm IgG1
B4: CE115HA000/GLS3000 N53W one-arm antibody (antibody, human IgG1, kappa, L234A L235A, N297A, name in Kabat numbering)
heavy: QVQLVESGGGVVQPGRSLRLSCAASGFTFSNAWMHWVRQAPGKGLEWVAQIKAKSNNYATYYAESVKGRFTISRDDSKNSLYLQMNSLKTEDTAVYYCRYVHYGAYYGVDAWGQGTTVTVSSASTKGPSVFPLAPSSKSTSGGTAALGCLVKDYFPEPVTVSWNSGALTSGVHTFPAVLQSSGLYSLSSVVTVPSSSLGTQTYICNVNHKPSNTKVDKKVEPKSCDKTHTCPPCPAPEAAGGPSVFLFPPKPKDTLMISRTPEVTCVVVDVSHEDPEVKFNWYVDGVEVHNAKTKPREEQYASTYRVVSVLTVLHQDWLNGKEYKCKVSNKALPAPIEKTISKAKGQPREPQVYTLPPSRCELTKNQVSLSCAVKGFYPSDIAVEWESNGQPENNYKTTPPVLDSDGSFFLVSKLTVDKSRWQQGNVFSCSVMHEALHNHYTQKSLSLSPDYKDDDDK
chain: EPKSSDKTHTCPPCPAPELLGGPSVFLFPPKPKDTLMISRTPEVTCVVVDVSHEDPEVKFNWYVDGVEVHNAKTKPREEQYNSTYRVVSVLTVLHQDWLNGKEYKCKVSNKALPAPIEKTISKAKGQPREPQVCTLPPSRDELTKNQVSLWCLVKGFYPSDIAVEWESNGQPENNYKTTPPVLDSDGSFFLYSKLTVDKSRWQQGNVFSCSVMHEALHNRYTQKSLSLSP
light: DIVMTQSPLSLPVTPGEPASISCRSSQSLVHSNRNTYLHWYQQKPGQAPRLLIYKVSWRFSGVPDRFSGSGSGTDFTLKISRVEAEDVGVYYCGQGTQVPYTFGQGTKLEIKRTVAAPSVFIFPPSDEQLKSGTASVVCLLNNFYPREAKVQWKVDNALQSGNSQESVTEQDSKDSTYSLSSTLTLSKADYEKHKVYACEVTHQGLSSPVTKSFNRGEC
notes: one-arm IgG1
B5: CE115HA000/GLS3000 N53V one-arm antibody (antibody, human IgG1, kappa, L234A L235A, N297A, name in Kabat numbering)
heavy: QVQLVESGGGVVQPGRSLRLSCAASGFTFSNAWMHWVRQAPGKGLEWVAQIKAKSNNYATYYAESVKGRFTISRDDSKNSLYLQMNSLKTEDTAVYYCRYVHYGAYYGVDAWGQGTTVTVSSASTKGPSVFPLAPSSKSTSGGTAALGCLVKDYFPEPVTVSWNSGALTSGVHTFPAVLQSSGLYSLSSVVTVPSSSLGTQTYICNVNHKPSNTKVDKKVEPKSCDKTHTCPPCPAPEAAGGPSVFLFPPKPKDTLMISRTPEVTCVVVDVSHEDPEVKFNWYVDGVEVHNAKTKPREEQYASTYRVVSVLTVLHQDWLNGKEYKCKVSNKALPAPIEKTISKAKGQPREPQVYTLPPSRCELTKNQVSLSCAVKGFYPSDIAVEWESNGQPENNYKTTPPVLDSDGSFFLVSKLTVDKSRWQQGNVFSCSVMHEALHNHYTQKSLSLSPDYKDDDDK
chain: EPKSSDKTHTCPPCPAPELLGGPSVFLFPPKPKDTLMISRTPEVTCVVVDVSHEDPEVKFNWYVDGVEVHNAKTKPREEQYNSTYRVVSVLTVLHQDWLNGKEYKCKVSNKALPAPIEKTISKAKGQPREPQVCTLPPSRDELTKNQVSLWCLVKGFYPSDIAVEWESNGQPENNYKTTPPVLDSDGSFFLYSKLTVDKSRWQQGNVFSCSVMHEALHNRYTQKSLSLSP
light: DIVMTQSPLSLPVTPGEPASISCRSSQSLVHSNRNTYLHWYQQKPGQAPRLLIYKVSVRFSGVPDRFSGSGSGTDFTLKISRVEAEDVGVYYCGQGTQVPYTFGQGTKLEIKRTVAAPSVFIFPPSDEQLKSGTASVVCLLNNFYPREAKVQWKVDNALQSGNSQESVTEQDSKDSTYSLSSTLTLSKADYEKHKVYACEVTHQGLSSPVTKSFNRGEC
notes: one-arm IgG1
B6: CE115HA000/GLS3000 N53T one-arm antibody (antibody, human IgG1, kappa, L234A L235A, N297A, name in Kabat numbering)
heavy: QVQLVESGGGVVQPGRSLRLSCAASGFTFSNAWMHWVRQAPGKGLEWVAQIKAKSNNYATYYAESVKGRFTISRDDSKNSLYLQMNSLKTEDTAVYYCRYVHYGAYYGVDAWGQGTTVTVSSASTKGPSVFPLAPSSKSTSGGTAALGCLVKDYFPEPVTVSWNSGALTSGVHTFPAVLQSSGLYSLSSVVTVPSSSLGTQTYICNVNHKPSNTKVDKKVEPKSCDKTHTCPPCPAPEAAGGPSVFLFPPKPKDTLMISRTPEVTCVVVDVSHEDPEVKFNWYVDGVEVHNAKTKPREEQYASTYRVVSVLTVLHQDWLNGKEYKCKVSNKALPAPIEKTISKAKGQPREPQVYTLPPSRCELTKNQVSLSCAVKGFYPSDIAVEWESNGQPENNYKTTPPVLDSDGSFFLVSKLTVDKSRWQQGNVFSCSVMHEALHNHYTQKSLSLSPDYKDDDDK
chain: EPKSSDKTHTCPPCPAPELLGGPSVFLFPPKPKDTLMISRTPEVTCVVVDVSHEDPEVKFNWYVDGVEVHNAKTKPREEQYNSTYRVVSVLTVLHQDWLNGKEYKCKVSNKALPAPIEKTISKAKGQPREPQVCTLPPSRDELTKNQVSLWCLVKGFYPSDIAVEWESNGQPENNYKTTPPVLDSDGSFFLYSKLTVDKSRWQQGNVFSCSVMHEALHNRYTQKSLSLSP
light: DIVMTQSPLSLPVTPGEPASISCRSSQSLVHSNRNTYLHWYQQKPGQAPRLLIYKVSTRFSGVPDRFSGSGSGTDFTLKISRVEAEDVGVYYCGQGTQVPYTFGQGTKLEIKRTVAAPSVFIFPPSDEQLKSGTASVVCLLNNFYPREAKVQWKVDNALQSGNSQESVTEQDSKDSTYSLSSTLTLSKADYEKHKVYACEVTHQGLSSPVTKSFNRGEC
notes: one-arm IgG1

These binders were tested against T1, CD3 epsilon homodimer protein (UniProt P07766 23-126) (assay: SPR (Biacore T200), CD3e homodimer on CM4 chip, antibody as analyte; KD ratio vs unaltered GLS3000;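 further: CD3 epsilon homodimer amine-coupled to the sensor surface, antibodies injected as analyte at 25 °C with HBS-EP+ running buffer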).
T1 construct: also called CD3 (CD3 epsilon)
T1 sequence (P07766 23-126): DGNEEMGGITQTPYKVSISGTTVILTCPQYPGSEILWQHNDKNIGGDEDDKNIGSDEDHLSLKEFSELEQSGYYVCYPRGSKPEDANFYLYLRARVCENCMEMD

Compared with B1, B2 is lower in “KD ratio to GLS3000” value: 1.56 ratio for the first, 0.88 ratio for the second.

First: B3
Second: B4
The “KD ratio to GLS3000” value of the first is lower: 0.99 ratio for the first, 1.01 ratio for the second.

First: B5
Second: B6
The “KD ratio to GLS3000” value of the first is lower: 2.14 ratio for the first, 2.68 ratio for the second.
